The values that follow come from the RNAGym collection of RNA variant scans (doi:10.1021/acssynbio.7b00057).

B1: Pistol ribozyme (parent)
chain: GGGUCGUUGUUCCAUAAUCGCGUGGAUAUGGCACGCAAGUUUCUACCGGGCACCGUAAAUGUCCGACUGGAGCCGUUCGGGCGGCUAUAAACAGACCUCAGGCCCGAAGCGUGGCGGCACCUGCCGCCGGUGGUAAAAAAGAUCGGAAGAGCACACGUCU

In this data set the parent is B1. The experiment in a line: aptazyme ON/OFF ratio, guanine; higher = stronger switching; co-transcriptional cleavage with and without guanine.
For the variant GGGUCGAGGUGCGAUAAUCGCGUGGAUAUGGCACGCAAGUUUCUACCGGGCACCGUAAAUGUCCGACUGGAGCCGUUCGGGCGGCUAUAAACAGACCUCAGGCCCGAAGCGUGGCGGCACCUGCCGCCGGUGGUAAAAAAGAUCGGAAGAGCACACGUCU, the “aptazyme ON/OFF ratio” value is 1.24. For the variant GGGUCGUAACGAAAUAAUCGCGUGGAUAUGGCACGCAAGUUUCUACCGGGCACCGUAAAUGUCCGACUGGAGCCGUUCGGGCGGCUAUAAACAGACCUCAGGCCCGAAGCGUGGCGGCACCUGCCGCCGGUGGUAAAAAAGAUCGGAAGAGCACACGUCU, the “aptazyme ON/OFF ratio” value worked out at 1.19. On to GGGUCGAGUUGGUAUAAUCGCGUGGAUAUGGCACGCAAGUUUCUACCGGGCACCGUAAAUGUCCGACUGGAGCCGUUCGGGCGGCUAUAAACAGACCUCAGGCCCGAAGCGUGGCGGCACCUGCCGCCGGUGGUAAAAAAGAUCGGAAGAGCACACGUCU, for which the “aptazyme ON/OFF ratio” value came to 1.22. For GGGUCGGCUAGCUAUAAUCGCGUGGAUAUGGCACGCAAGUUUCUACCGGGCACCGUAAAUGUCCGACUGGAGCCGUUCGGGCGGCUAUAAACAGACCUCAGGCCCGAAGCGUGGCGGCACCUGCCGCCGGUGGUAAAAAAGAUCGGAAGAGCACACGUCU, the “aptazyme ON/OFF ratio” value was 1.38. The figure for GGGUCGUCUAUAGAUAAUCGCGUGGAUAUGGCACGCAAGUUUCUACCGGGCACCGUAAAUGUCCGACUGGAGCCGUUCGGGCGGCUAUAAACAGACCUCAGGCCCGAAGCGUGGCGGCACCUGCCGCCGGUGGUAAAAAAGAUCGGAAGAGCACACGUCU is 1.19; for GGGUCGAAGAAGAAUAAUCGCGUGGAUAUGGCACGCAAGUUUCUACCGGGCACCGUAAAUGUCCGACUGGAGCCGUUCGGGCGGCUAUAAACAGACCUCAGGCCCGAAGCGUGGCGGCACCUGCCGCCGGUGGUAAAAAAGAUCGGAAGAGCACACGUCU it is 1.05. Turning to GGGUCGGGAUACCAUAAUCGCGUGGAUAUGGCACGCAAGUUUCUACCGGGCACCGUAAAUGUCCGACUGGAGCCGUUCGGGCGGCUAUAAACAGACCUCAGGCCCGAAGCGUGGCGGCACCUGCCGCCGGUGGUAAAAAAGAUCGGAAGAGCACACGUCU, the “aptazyme ON/OFF ratio” value worked out at 2.46. Take GGGUCGAACAUGAAUAAUCGCGUGGAUAUGGCACGCAAGUUUCUACCGGGCACCGUAAAUGUCCGACUGGAGCCGUUCGGGCGGCUAUAAACAGACCUCAGGCCCGAAGCGUGGCGGCACCUGCCGCCGGUGGUAAAAAAGAUCGGAAGAGCACACGUCU: the “aptazyme ON/OFF ratio” value was determined as 1.15. Regarding GGGUCGCAACUCGAUAAUCGCGUGGAUAUGGCACGCAAGUUUCUACCGGGCACCGUAAAUGUCCGACUGGAGCCGUUCGGGCGGCUAUAAACAGACCUCAGGCCCGAAGCGUGGCGGCACCUGCCGCCGGUGGUAAAAAAGAUCGGAAGAGCACACGUCU, the “aptazyme ON/OFF ratio” value was 1.05. In the case of GGGUCGCCCGGCUAUAAUCGCGUGGAUAUGGCACGCAAGUUUCUACCGGGCACCGUAAAUGUCCGACUGGAGCCGUUCGGGCGGCUAUAAACAGACCUCAGGCCCGAAGCGUGGCGGCACCUGCCGCCGGUGGUAAAAAAGAUCGGAAGAGCACACGUCU, the “aptazyme ON/OFF ratio” value stood at 1.1. Turning to GGGUCGAGAUAAAAUAAUCGCGUGGAUAUGGCACGCAAGUUUCUACCGGGCACCGUAAAUGUCCGACUGGAGCCGUUCGGGCGGCUAUAAACAGACCUCAGGCCCGAAGCGUGGCGGCACCUGCCGCCGGUGGUAAAAAAGAUCGGAAGAGCACACGUCU, the “aptazyme ON/OFF ratio” value stood at 1.39. The figure for GGGUCGCUCAGUCAUAAUCGCGUGGAUAUGGCACGCAAGUUUCUACCGGGCACCGUAAAUGUCCGACUGGAGCCGUUCGGGCGGCUAUAAACAGACCUCAGGCCCGAAGCGUGGCGGCACCUGCCGCCGGUGGUAAAAAAGAUCGGAAGAGCACACGUCU is 1.05; for GGGUCGAGUAUGCAUAAUCGCGUGGAUAUGGCACGCAAGUUUCUACCGGGCACCGUAAAUGUCCGACUGGAGCCGUUCGGGCGGCUAUAAACAGACCUCAGGCCCGAAGCGUGGCGGCACCUGCCGCCGGUGGUAAAAAAGAUCGGAAGAGCACACGUCU it is 1.45; for GGGUCGAUCUCUUAUAAUCGCGUGGAUAUGGCACGCAAGUUUCUACCGGGCACCGUAAAUGUCCGACUGGAGCCGUUCGGGCGGCUAUAAACAGACCUCAGGCCCGAAGCGUGGCGGCACCUGCCGCCGGUGGUAAAAAAGAUCGGAAGAGCACACGUCU it is 1.16. With GGGUCGCGAAAGCAUAAUCGCGUGGAUAUGGCACGCAAGUUUCUACCGGGCACCGUAAAUGUCCGACUGGAGCCGUUCGGGCGGCUAUAAACAGACCUCAGGCCCGAAGCGUGGCGGCACCUGCCGCCGGUGGUAAAAAAGAUCGGAAGAGCACACGUCU, the “aptazyme ON/OFF ratio” value was determined as 1.1. The figure for GGGUCGAUCGUUGAUAAUCGCGUGGAUAUGGCACGCAAGUUUCUACCGGGCACCGUAAAUGUCCGACUGGAGCCGUUCGGGCGGCUAUAAACAGACCUCAGGCCCGAAGCGUGGCGGCACCUGCCGCCGGUGGUAAAAAAGAUCGGAAGAGCACACGUCU is 1.11; for GGGUCGUGCUUUUAUAAUCGCGUGGAUAUGGCACGCAAGUUUCUACCGGGCACCGUAAAUGUCCGACUGGAGCCGUUCGGGCGGCUAUAAACAGACCUCAGGCCCGAAGCGUGGCGGCACCUGCCGCCGGUGGUAAAAAAGAUCGGAAGAGCACACGUCU it is 1.06. On to GGGUCGCCUCCAUAUAAUCGCGUGGAUAUGGCACGCAAGUUUCUACCGGGCACCGUAAAUGUCCGACUGGAGCCGUUCGGGCGGCUAUAAACAGACCUCAGGCCCGAAGCGUGGCGGCACCUGCCGCCGGUGGUAAAAAAGAUCGGAAGAGCACACGUCU, for which the “aptazyme ON/OFF ratio” value is 1.16.
